Non-standard residues stand in square brackets, D forms with d. No end group written: not given here. pY = N[C@@H](Cc1ccc(OP(=O)(O)O)cc1)C(=O)O

B1: Nervous Fingers peptide VIGD(pY)VCRLCK (peptide)
peptide: VIGD[pY]VCRLCK
modifications: cysteine pairing not given here
B2: Insulin receptor peptide TRDI(pY)ETDYYRK (peptide)
peptide: TRDI[pY]ETDYYRK
B3: Abelson peptide RDDT(pY)TAHAG (peptide)
peptide: RDDT[pY]TAHAG
B4: Myospheroid peptide CDDS(pY)FGNKC (peptide)
peptide: CDDS[pY]FGNKC
modifications: cysteine pairing not given here
B5: Cuticle peptide TAEPD(pY)GALYE (peptide)
peptide: TAEPD[pY]GALYE

The assay concerns the target recombinant DLAR catalytic domain (Drosophila).
As for B1, the Kcat/Km of dephosphorylation of the peptide by DLAR (malachite green phosphatase assay) amounted to 196000 sec^-1M^-1.
The result for B2 reads 264000 sec^-1M^-1.
For B3, the Kcat/Km of dephosphorylation of the peptide by DLAR (malachite green phosphatase assay) is 180000 sec^-1M^-1.
Take B4: the Kcat/Km of dephosphorylation of the peptide by DLAR (malachite green phosphatase assay) was determined as 143000 sec^-1M^-1.
As for B5, the Kcat/Km of dephosphorylation of the peptide by DLAR (malachite green phosphatase assay) is 300000 sec^-1M^-1.

The record behind these values is publication PMC2955050.
